Reference: publication PMC4165587, “Comparison of the Structure and Function of Phospholamban and the Arginine-14 Deficient Mutant Associated with Dilated Cardiomyopathy” (PLoS ONE, 2014)

B1: phospholamban with a deletion of arginine at position 14 (PLBR14Δ), full length, recombinant (natural protein, human, UniProt P26678 1-52, looked up)
chain: MEKVQYLTRSAIRASTIEMPQQARQKLQNLFINFCLILICLLLICIIVMLL
notes: phospholamban, human, full length, non-acetylated, with the deletion of Arg14 that is associated with human dilated cardiomyopathy; Made from the human PLBWT DNA by site-directed ligase-independent mutagenesis; A synthetic full-length PLBR14Δ was also bought (Activotec), but the experiments written here name the recombinant protein; also called Rec R14Δ; PLBR14D; source: E. coli C41(DE3), MBP …
B2: wild type phospholamban (PLBWT), full length, recombinant (natural protein, human, UniProt P26678 1-52, looked up)
chain: MEKVQYLTRSAIRRASTIEMPQQARQKLQNLFINFCLILICLLLICIIVMLL
notes: phospholamban, human, 52 amino acids, full length, non-acetylated; Untagged after TEV cleavage; also called Rec WT; source: E. coli C41(DE3), MBP fusion (pMAL c2X), purified on amylose, cleaved with TEV protease, chloroform/methanol extraction; not shown: MBP, N-terminal, cleaved

Molecular target: the molecule itself
Assay: SDS-PAGE; recombinant PLB in isolation, solubilised in LDS sample buffer; 4-12% Bolt Bis-Tris Plus gel, MES SDS running buffer; Coomassie stain

Row | Protein | stoichiometry N
1 | B1 | 5
2 | B2 | 5
